Consider five proteins from patent US9873883B2, “Glyphosate resistant plants and associated methods” (Dow AgroSciences LLC, priority 2012, dated 2018).

Values joined by “and” are separate entries in the source; they are usually repeats but may differ in a detail not shown here. Equal entries are not always repeated.

Substrate in series [1]: C=C(OP(=O)(O)O)C(=O)O
The series is described as follows: purified protein, by the assay type. The conditions noted are these: other: pH 7.5, 1 mM S3P.

Substrate in series [2]: C=C(OP(=O)(O)O)C(=O)O
Briefly: In vitro kinetic assay (inorganic phosphate production, malachite green). The class given is biochemical, Triticum aestivum. As to conditions: other: pH 7.5, 1 mM S3P. The text has this:
The following Class I enzymes: DGT-1 from Glycine max, DGT-3 from Brassica napus (GENBANK ACC NO: P17688), and DGT-7 from Triticum aestivum (GENBANK ACC NO: EU977181) were used as a comparison. The Class I EPSP synthase enzymes and mutant variants thereof were synthesized and evaluated. A mutation introduced into the plant EPSP synthase enzymes consisted of the Glycine to Alanine mutation made within the EPSP synthase enzyme at a similar location as that of the G96A mutation from the E. coli version of the enzyme. In addition, Threonine to Isoleucine and Proline to Serine mutations were introduced within these Class I EPSP synthase enzymes at analogous positions as that of amino acid 97 (T to I) and amino acid 101 (P to S) in the EPSP synthase of E. coli as described in Funke et al., (2009).
The location of the amino acid residue which was mutated from glycine to alanine is indicated by the first asterisk. The location of the amino acid residue which was mutated from threonine to isoleucine is indicated by the second asterisk. The location of the third amino acid residue which was mutated from proline to serine is indicated by the third asterisk. These mutations were introduced into different versions of DGT-1, DGT-3, and DGT-7. The different versions of the genes which contain the mutations are described in more detail below.
Additional constructs containing the dgt-1, dgt-3 and dgt-7 were synthesized. These constructs were used for in vitro testing of the dgt-1 v5, dgt-1 v6, dgt-1 v7, dgt-1 v8, dgt-3 v6, dgt-3 v7, dgt-3 v8, dgt-7 v5, dgt-7 v6, dgt-7 v7, and dgt-7 v8 gene sequences were outsourced to GeneArt for synthesis and cloning. The synthesized genes were cloned into the pET28 expression vector. The resulting constructions were labeled as pDAB102028 containing dgt-1 v5, pDAB102029 containing dgt-1 v6, pDAB102032 containing dgt-1 v7, pDAB102034 containing dgt-1 v8, pDAB100429 containing dgt-3 v6, pDAB100442 containing dgt-3 v7, pDAB100430 containing dgt-3 v8, pDAB102036 containing dgt-7 v5, pDAB102038 containing dgt-7 v6, pDAB102040 containing dgt-7 v7, and pDAB102042 containing dgt-7 v8.
Recombinant DGT proteins were overexpressed in Rosetta2™ (DE3) cells (Novagen, Madison, Wis.) from the constructs described above. A single colony was used to inoculate 50 mL starter cultures of LB containing chloramphenicol (25 μg/mL) and kanamycin (50 μg/mL) which were cultivated overnight at 37° C. The overnight cultures were used to inoculate 1 L of LB containing chloramphenicol (25 μg/mL) and kanamycin (50 μg/mL). The cultures were grown at 37° C. to an O.D.600=0.6 then placed in an ice water bath for 10 minutes. Expression of the target proteins was achieved by addition of IPTG to a final concentration of 500 μM. Induction was allowed to proceed overnight at 20° C. followed by harvesting via centrifugation at 8,000 rpm for 20 minutes. The cell pellets were stored at −80° C. until required for purification. All purification steps were carried out at 4° C.
Cell pellets from 1 L cultures were resuspended in 20-30 mL Buffer A (50 mM HEPES pH 7.5, 150 mM KCl, 2 mM DTT, 1 mM EDTA, 20 mM imidazole, and 5% glycerol). COMPLETE™ protease inhibitor cocktail (1 tablet/50 mL, Roche, Indianapolis, Ind.) and lysozyme (1 mg/mL, Sigma-Aldrich, St. Louis, Mo.) were then added and the suspension was stirred for 20 minutes. Cell lysis was performed using a Branson Sonifier 250 (3×60 second bursts) followed by removal of the cell debris by centrifugation at 16,000 rpm for 45 minutes. […]

B1: Triticum aestivum (wheat) EPSP synthase DGT-7 v5, native (GENBANK EU977181), SEQ ID NO: 60 (Triticum aestivum) (protein)
chain: MATSVAAPAAPSGAEEVVLQPIREISGAVQLPGSKSLSNRILLLSALSEGTTVVDNLLNSEDVHYMLEALEALGLSVEADKVAKRAVVVGCGGRFPVEKDAQEEVKLFLGNAGTAMRPLTAAVVAAGGNATYVLDGVPRMRERPIGDLVVGLQQLGADADCFLGTNCPPVRINGKGGLPGGKVKLSGSISSQYLSSLLMAAPLALEDVEIEIIDKLISVPYVEMTLKLMERFGVTAEHSDSWDRFYIKGGQKYKSPGNAYVEGDASSASYFLAGAAITGGTVTVEGCGTTSLQGDVKFAEVLEMMGAKVTWTDTSVTVTGPPRQPFGRKHLKAVDVNMNKMPDVAMTLAVVALFADGPTAIRDVASWRVKETERMVAIRTELTKLGATVEEGPDYCIITPPEKLNITAIDTYDDHRMAMAFSLAACAEVPVTIRDPGCTRKTFPNYFDVLSTFVKN
With B1, the Michaelis constant (Km) in series [1] was 75.6 µM.

B2: Triticum aestivum (wheat) EPSP synthase DGT-7 variant DGT-7 v6 (G→A) (Triticum aestivum; G167A) (protein)
chain: MATSVAAPAAPSGAEEVVLQPIREISGAVQLPGSKSLSNRILLLSALSEGTTVVDNLLNSEDVHYMLEALEALGLSVEADKVAKRAVVVGCGGRFPVEKDAQEEVKLFLGNAATAMRPLTAAVVAAGGNATYVLDGVPRMRERPIGDLVVGLQQLGADADCFLGTNCPPVRINGKGGLPGGKVKLSGSISSQYLSSLLMAAPLALEDVEIEIIDKLISVPYVEMTLKLMERFGVTAEHSDSWDRFYIKGGQKYKSPGNAYVEGDASSASYFLAGAAITGGTVTVEGCGTTSLQGDVKFAEVLEMMGAKVTWTDTSVTVTGPPRQPFGRKHLKAVDVNMNKMPDVAMTLAVVALFADGPTAIRDVASWRVKETERMVAIRTELTKLGATVEEGPDYCIITPPEKLNITAIDTYDDHRMAMAFSLAACAEVPVTIRDPGCTRKTFPNYFDVLSTFVKN
Regarding B2, in series [2], the Km was found to be 538.2 µM and the catalytic efficiency (kcat/Km) stood at 16100 M⁻¹ s⁻¹.

B3: Triticum aestivum (wheat) EPSP synthase DGT-7 variant DGT-7 v7 (G→A, P→S; GAPS) (Triticum aestivum; G167A/P172S) (protein)
chain: MATSVAAPAAPSGAEEVVLQPIREISGAVQLPGSKSLSNRILLLSALSEGTTVVDNLLNSEDVHYMLEALEALGLSVEADKVAKRAVVVGCGGRFPVEKDAQEEVKLFLGNAATAMRSLTAAVVAAGGNATYVLDGVPRMRERPIGDLVVGLQQLGADADCFLGTNCPPVRINGKGGLPGGKVKLSGSISSQYLSSLLMAAPLALEDVEIEIIDKLISVPYVEMTLKLMERFGVTAEHSDSWDRFYIKGGQKYKSPGNAYVEGDASSASYFLAGAAITGGTVTVEGCGTTSLQGDVKFAEVLEMMGAKVTWTDTSVTVTGPPRQPFGRKHLKAVDVNMNKMPDVAMTLAVVALFADGPTAIRDVASWRVKETERMVAIRTELTKLGATVEEGPDYCIITPPEKLNITAIDTYDDHRMAMAFSLAACAEVPVTIRDPGCTRKTFPNYFDVLSTFVKN
notes: GAPS double mutant
For the protein B3, in series [2], the Km came out at 1103.2 µM and the kcat/Km was 14600 M⁻¹ s⁻¹.

B4: Triticum aestivum (wheat) EPSP synthase DGT-7 variant DGT-7 v8 (T→I, P→S; TIPS) (Triticum aestivum; P172S/T168I) (protein)
chain: MATSVAAPAAPSGAEEVVLQPIREISGAVQLPGSKSLSNRILLLSALSEGTTVVDNLLNSEDVHYMLEALEALGLSVEADKVAKRAVVVGCGGRFPVEKDAQEEVKLFLGNAGIAMRSLTAAVVAAGGNATYVLDGVPRMRERPIGDLVVGLQQLGADADCFLGTNCPPVRINGKGGLPGGKVKLSGSISSQYLSSLLMAAPLALEDVEIEIIDKLISVPYVEMTLKLMERFGVTAEHSDSWDRFYIKGGQKYKSPGNAYVEGDASSASYFLAGAAITGGTVTVEGCGTTSLQGDVKFAEVLEMMGAKVTWTDTSVTVTGPPRQPFGRKHLKAVDVNMNKMPDVAMTLAVVALFADGPTAIRDVASWRVKETERMVAIRTELTKLGATVEEGPDYCIITPPEKLNITAIDTYDDHRMAMAFSLAACAEVPVTIRDPGCTRKTFPNYFDVLSTFVKN
notes: TIPS double mutant
Regarding B4, the Michaelis constant (Km) in series [2] turned out to be 60.5 µM.

B5: Glycine max (soybean) EPSP synthase DGT-1 v5, native, SEQ ID NO: 59 (Glycine max) (protein)
chain: MASVAAAEKPSTSPEIVLEPIKDFSGTITLPGSKSLSNRILLLAALSEGTTVVDNLLYSEDIHYMLGALRTLGLRVEDDKTTKQAIVEGCGGLFPTSKESKDEINLFLGNAGTAMRPLTAAVVAAGGNASYVLDGVPRMRERPIGDLVAGLKQLGADVDCFLGTNCPPVRVNGKGGLPGGKVKLSGSVSSQYLTALLMAAPLALGDVEIEIVDKLISVPYVEMTLKLMERFGVSVEHSGNWDRFLVHGGQKYKSPGNAFVEGDASSASYLLAGAAITGGTITVNGCGTSSLQGDVKFAEVLEKMGAKVTWSENSVTVSGPPRDFSGRKVLRGIDVNMNKMPDVAMTLAVVALFANGPTAIRDVASWRVKETERMIAICTELRKLGATVEEGPDYCVITPPEKLNVTAIDTYDDHRMAMAFSLAACGDVPVTIKDPGCTRKTFPDYFEVLERLTKH
As for B5, in series [1], the Km was 70 µM and 73.0 µM.

The term Km denotes the substrate concentration at which the rate is half of its maximum. By kcat/Km is commonly meant the turnover number divided by the Michaelis constant.
